# Biological target: MCP-1 receptor(s) on THP-1 cells (human (endogenous in THP-1)) (UniProt P41597)
# Experiment: radioligand binding
Kd [nM],IC50 [nM],fold higher Kd than MCP-1 [fold],Substance
385,–,–,MCP-1 2-76 analogue (from UniProt P13500 25-99) (domain or fragment)
487,–,–,MCP-1 3-76 analogue (from UniProt P13500 26-99) (domain or fragment)
23,–,–,MCP-1 5-76 analogue (from UniProt P13500 28-99) (domain or fragment)
8.3,17,–,MCP-1 9-76 analogue (from UniProt P13500 32-99) (domain or fragment)
–,–,13,MCP-1 10-76 analogue (from UniProt P13500 33-99) (domain or fragment)
–,–,48,MCP-1 11-76 analogue (from UniProt P13500 34-99) (domain or fragment)
333,–,–,MCP-1 (Ac) (from UniProt P13500 24-99) (ligand)
2.8,–,–,"Monocyte chemoattractant protein 1 (MCP-1), synthetic, NH2-terminal pyroglutamate form (from UniProt P13500 24-99) (ligand)"
